In US20170218066A1 (SORRENTO THERAPEUTICS, published 2017):

Target: T1, human PD-L1 (human, UniProt Q9NZQ7 19-238, limits assumed)
T1 construct: also called Programmed death ligand 1; B7-H1
Assay: Biacore (SPR)

T1 sequence (Q9NZQ7 19-238 limits assumed): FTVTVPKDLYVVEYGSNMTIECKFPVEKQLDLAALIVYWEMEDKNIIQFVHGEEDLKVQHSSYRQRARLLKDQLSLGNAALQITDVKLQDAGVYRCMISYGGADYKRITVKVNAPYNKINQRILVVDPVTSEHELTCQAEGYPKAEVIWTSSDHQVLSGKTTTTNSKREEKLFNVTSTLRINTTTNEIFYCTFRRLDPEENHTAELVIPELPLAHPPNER

Row | Ka | Kd | koff | kon | Binder
1 | 5.48e+08 M⁻¹ | 1.82 nM | 0.00287 s⁻¹ | 1.57e+06 M⁻¹ s⁻¹ | H6B1L-EV (antibody, V domains shown, Fully human antibody of an IgG class, light chain variant of H6B1L) VH: QMQLVQSGAEVKKPGSSVKVSCKASGGTFSSYAYSWVRQAPGQGLEWMGGIIPSFGTANYAQKFQGRVTITADESTSTAYMELSSLRSEDTAVYYCARGPIVATITPLDYWGQGTLVTVSS VL: SYVLMQPPSVSVAPGKTATIACGGENIGRKTVHWYQQKPGQAPVLVIYYDSDRPSGIPERFSGSNSGNTATLTISRVEAGDEADYYCLVWDSSSDHRIFGGGTKLTVL
2 | 6.44e+08 M⁻¹ | 1.55 nM | 0.00214 s⁻¹ | 1.38e+06 M⁻¹ s⁻¹ | H6B1L-EM (antibody, V domains shown, Fully human antibody of an IgG class, light chain variant of H6B1L) VH: QMQLVQSGAEVKKPGSSVKVSCKASGGTFSSYAYSWVRQAPGQGLEWMGGIIPSFGTANYAQKFQGRVTITADESTSTAYMELSSLRSEDTAVYYCARGPIVATITPLDYWGQGTLVTVSS VL: SYVLTQPPSVSVAPGKTATIACGGENIGRKTVHWYQQKPGQAPVLVIYYDSDRPSGIPERFSGSNSGNTATLTISRVEAGDEADYYCLVWDSSSDHRIFGGGTKLTVL
3 | 5.4e+08 M⁻¹ | 1.85 nM | 0.0028 s⁻¹ | 1.51e+06 M⁻¹ s⁻¹ | H6B1L (antibody, V domains shown, Fully human antibody of an IgG class; also called parent antibody H6B1L; wild type antibody H6B1L) VH: QMQLVQSGAEVKKPGSSVKVSCKASGGTFSSYAYSWVRQAPGQGLEWMGGIIPSFGTANYAQKFQGRVTITADESTSTAYMELSSLRSEDTAVYYCARGPIVATITPLDYWGQGTLVTVSS VL: SYELMQPPSVSVAPGKTATIACGGENIGRKTVHWYQQKPGQAPVLVIYYDSDRPSGIPERFSGSNSGNTATLTISRVEAGDEADYYCLVWDSSSDHRIFGGGTKLTVL
